According to US11660340B2, “Combination therapy using T cell redirection antigen binding molecule against cell having immunosuppressing function” (CHUGAI SEIYAKU KABUSHIKI KAISHA, priority 2015, dated 2023):

T1: mFcgRI (Mus musculus, UniProt P26151)
T1 sequence (P26151 25-404): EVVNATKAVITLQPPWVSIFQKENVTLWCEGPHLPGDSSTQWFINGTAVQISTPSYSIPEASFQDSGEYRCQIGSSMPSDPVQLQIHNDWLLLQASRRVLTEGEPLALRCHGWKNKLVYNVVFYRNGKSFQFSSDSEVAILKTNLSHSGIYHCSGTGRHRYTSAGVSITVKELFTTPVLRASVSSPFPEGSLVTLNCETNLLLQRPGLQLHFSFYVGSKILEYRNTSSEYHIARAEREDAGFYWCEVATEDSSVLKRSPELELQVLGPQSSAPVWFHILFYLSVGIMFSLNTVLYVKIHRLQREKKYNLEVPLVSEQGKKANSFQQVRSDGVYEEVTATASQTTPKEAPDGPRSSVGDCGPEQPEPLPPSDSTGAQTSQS

T2: mFcgRII (Mus musculus, UniProt P08101)
T2 sequence (P08101 30-330): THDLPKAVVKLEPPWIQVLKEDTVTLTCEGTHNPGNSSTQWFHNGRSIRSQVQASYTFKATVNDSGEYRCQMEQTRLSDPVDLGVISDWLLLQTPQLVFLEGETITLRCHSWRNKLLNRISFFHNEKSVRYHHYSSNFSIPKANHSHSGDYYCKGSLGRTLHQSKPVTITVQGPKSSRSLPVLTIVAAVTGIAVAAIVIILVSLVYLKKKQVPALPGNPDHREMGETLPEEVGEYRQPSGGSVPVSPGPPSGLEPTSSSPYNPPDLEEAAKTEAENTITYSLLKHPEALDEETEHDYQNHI

T3: mFcgRIII (Mus musculus, UniProt P08508)
T3 sequence (P08508 31-261): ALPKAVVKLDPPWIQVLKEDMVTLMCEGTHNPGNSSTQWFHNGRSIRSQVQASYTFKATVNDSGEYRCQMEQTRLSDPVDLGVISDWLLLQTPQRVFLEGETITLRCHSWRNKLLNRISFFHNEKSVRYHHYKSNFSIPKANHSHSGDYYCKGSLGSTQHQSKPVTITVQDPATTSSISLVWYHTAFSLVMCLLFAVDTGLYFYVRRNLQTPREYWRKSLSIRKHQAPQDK

T4: mFcgRIV (Mus musculus, UniProt A0A0B4J1G0)
T4 sequence (A0A0B4J1G0 21-249): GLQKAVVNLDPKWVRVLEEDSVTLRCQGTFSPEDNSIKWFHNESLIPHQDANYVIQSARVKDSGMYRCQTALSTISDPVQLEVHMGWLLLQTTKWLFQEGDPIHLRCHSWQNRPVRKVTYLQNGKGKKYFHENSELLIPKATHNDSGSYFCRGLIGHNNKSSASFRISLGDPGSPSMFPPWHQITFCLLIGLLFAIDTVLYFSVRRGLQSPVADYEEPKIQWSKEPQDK

B1: hUH02hUL01-mFa55: anti-mouse CTLA4 antibody, mouse IgG2a/kappa, constant region mFa55 modified to enhance binding to mouse FcγR (ADCC-enhanced) (antibody)
heavy: QVQLQESGPGLVKPSETLSLTCTVSGYSISSGYGWNWIRQPPGKGLEWIGFIYYEGSTYYNPSIKSRISITRDTSKNQFFLQVNSVTTEDTATYYCARQTGYFDYWGQGTLVTVSSAKTTAPSVYPLAPVCGDTTGSSVTLGCLVKGYFPEPVTLTWNSGSLSSGVHTFPAVLQSDLYTLSSSVTVTSSTWPSQSITCNVAHPASSTKVDKKIEPRGPTIKPCPPCKCPAPNLLGGPDVFIFPPKIKDVLMISLSPIVTCVVVDVSEDDPDVQISWFVNNVEVHTAQTQTHREDYNSTLRVVSALPIQHQDWMSGKEFKCKVNNKDLPAPIERTISKPKGSVRAPQVYVLPPPEEEMTKKQVTLTCMVTDFMPEDIYVEWTNNGKTELNYKNTEPVLDSDGSYFMYSKLRVEKKNWVERNSYSCSVVHEGLHNHHTTKSFSRTPGK
light: DIVMTQSPDSLAVSLGERATINCKSSQSLFNSNAKTNYLNWYQQKPGQPPKLLIYYASTRHTGVPDRFSGSGSGTDFTLTISSLQAEDVAVYYCQQWYDYPYTFGAGTKVEIKRADAAPTVSIFPPSSEQLTSGGASVVCFLNNFYPKDINVKWKIDGSERQNGVLNSWTDQDSKDSTYSMSSTLTLTKDEYERHNSYTCEATHKTSTSPIVKSFNRNEC

Legend:
CT26.WT cells = assay: Combined use of mCTLA4/mCD3 and gemcitabine, CT26.WT cell-transplanted model; format: in vivo; conditions: final measurement point; mCTLA4/mCD3 25 μg/mouse day 9, gemcitabine 120 mg/kg day 8, tail vein; n=5; FIG. 19
Protocol: BALB/cA mice and C57BL/6N mice were purchased from Charles River Laboratories Japan, Inc. The CT26.WT cells or the CT26/hGPC3 cells were transplanted subcutaneously to BALB/cA mice, and the LL/2 (LLC1) cells or the LLC1/hGPC3 cells were transplanted subcutaneously to C57BL/6N mice. Models were established when the average volume of the transplanted tumors reached approximately 100 mm^3 to 200 mm^3.
The volume of the transplanted tumor was calculated using the following equation: Tumor volume (mm^3)=major axis (mm)×minor axis (mm)×minor axis (mm)/2
As the pharmaceutical agents to be administered for the combined use test, the anti-mouse CTLA4/anti-mouse CD3 bispecific monoclonal antibody (mCTLA4/mCD3) was prepared at 0.125 mg/mL in PBS (−), and a pyrimidine analog (antimetabolite), gemcitabine (Gemzar: Eli Lilly Japan) was prepared at 12 mg/mL in physiological saline solution (Otsuka Pharmaceutical).
To evaluate the effects of combined use of the anti-mouse CTLA4/anti-mouse CD3 bispecific monoclonal antibody (mCTLA4/mCD3) and gemcitabine, the CT26.WT cell-transplanted model was used and given through the tail vein gemcitabine at 120 mg/kg eight days after transplantation and […] at 25 μg/mouse nine days after transplantation.
Antitumor effects were evaluated from the tumor volumes calculated using the equation shown in (2) of Example 1. […]

[1] = tested on: mouse CTLA4-expressing cells (CHO/mouse CTLA4 cells); assay: ADCC activity, chromium-release assay with mFcgR4-NK92 effector cells; format: cell-based; conditions: antibody 0, 0.04, 0.4, 4, 40 μg/ml, FIG. 5
Description: Whether anti-mouse CTLA4 antibody hUH02hUL01-mFa55 purified and prepared by the method of Reference Example 2-1 exerts ADCC activity on mouse CTLA4-expressing cells (mouse CTLA4-expressing cells were produced by a method known to those skilled in the art by introducing the full length mouse CTLA4 gene into CHO cells) was examined according to the method of Reference Example 11.
Regarding anti-mouse CTLA4 antibodies, antibody concentration-dependent ADCC activities of test antibodies were measured, using the mouse FcgR4-expressing human NK cell line NK-92 (hereinafter referred to as mFcgR4-NK92) as effector cells by following the method described below.
After washing mFcgR4-NK92 with RPMI-1640 (nacalai tesque) containing 10% FBS (hereinafter referred to as 10% FBS/RPMI), the cells were suspended in 10% FBS/RPMI at a cell density of 4×10^5 cells/ml. […]
The ADCC activities were evaluated from the specific chromium release rate according to the chromium release method. […] The radioactivity of 100 μl of culture supernatant in each well of the plate was measured using a gamma counter. The specific chromium release rate was determined based on the following equation. […] The examinations were performed in duplicate and the mean value for the specific chromium release rate (%) of the test antibody was calculated.

mFcgRI = target: T1, mFcgRI; assay: Biacore T200 binding of anti-mouse CTLA4 antibody to mouse FcgR; conditions: 1:1 binding RI = 0, 25° C., pH7.4
Protocol: (§1) Anti-mouse CTLA4 antibody hUH02hUL01-mFa55 and control antibody hUH02hUL01-mIgG2a (the heavy chain variable region UH02 is SEQ ID NO: 28, the light chain variable region UL01 is SEQ ID NO: 29, the heavy chain constant region mIgG2a is SEQ ID NO: 32, and the light chain constant region mk1 is SEQ ID NO: 31) purified and prepared by the method of Reference Example 2-1 were analyzed for their antigen-antibody reactions with various mouse FcgRs (mFcgRI, II, III, and IV) using Biacore™ T200 (GE Healthcare). The running buffer used was 20 mmol/L ACES, 150 mmol/L NaCl, 0.05% (w/v) Tween®20 at pH7.4, and measurements were taken at 25° C. Protein A/G was immobilized onto a Sensor Chip CM7 by amine coupling. hUH02hUL01-mFa55 was captured onto the sensorchip, and then FcgR was allowed to interact as an analyte for 120 seconds, and change in the bound amount was observed. The running buffer was used for dilution of hUH02hUL01-mFa55. The measurement results were analyzed by curve fitting using the Biacore™ T200 Evaluation Software (GE Healthcare) to calculate the association rate constants ka (l/Ms) and the dissociation rate constants kd (l/s). From those values, the dissociation constants KD (M) were determined.

mFcgRII = target: T2, mFcgRII; assay: as above; conditions: 1:1 binding RI = 0, 25° C., pH7.4
Protocol: as §1

mFcgRIII = target: T3, mFcgRIII; assay: as above; conditions: 1.1 binding RI = 0, 25° C., pH7.4
Protocol: as §1

mFcgRIV = target: T4, mFcgRIV; assay: as above; conditions: 1:1 binding RI = 0, 25° C., pH7.4
Protocol: as §1

Molecule	tumor volume vs. the PBS-administered group (Tukey multiple comparison test) (CT26.WT cells)	ADCC activity (specific chromium release rate) [1]	ka (mFcgRI)	kd (mFcgRI)	ka (mFcgRII)	kd (mFcgRII)	ka (mFcgRIII)	kd (mFcgRIII)	ka (mFcgRIV)	kd (mFcgRIV)
Nc1ccn([C@@H]2O[C@H](CO)[C@@H](O)C2(F)F)c(=O)n1 [gemcitabine]	significant differences (p<0.05)	–	–	–	–	–	–	–	–	–
B1	–	ADCC activity in an antibody concentration-dependent manner	1.2e+06 M⁻¹ s⁻¹	0.0031 s⁻¹	2.1e+06 M⁻¹ s⁻¹	0.76 s⁻¹	2.4e+06 M⁻¹ s⁻¹	0.62 s⁻¹	1.5e+06 M⁻¹ s⁻¹	0.0028 s⁻¹
